Measured values taken from US20140179604A1 (U S A REPRESENTED BY THE DEPARTMENT OF VETERANS AFFAIRS, published 2014).
Read-outs that look alike come from different tables or passages of the source. Non-standard residues stand in square brackets, D forms with d. No end group written: not given here. *: point of attachment. NMeY = CN[C@@H](Cc1ccc(O)cc1)C(=O)O; Agmatine = N=C(N)NCCCCN*; Nle = CCCC[C@H](N)C(=O)O; Orn = NCCC[C@H](N)C(=O)O; Abu = CC[C@H](N)C(=O)O; GABA = NCCCC(=O)O

T1: GHRH receptor (membrane receptors of human anterior pituitary cells) (human) (UniProt Q02643)
T1 sequence (looked up): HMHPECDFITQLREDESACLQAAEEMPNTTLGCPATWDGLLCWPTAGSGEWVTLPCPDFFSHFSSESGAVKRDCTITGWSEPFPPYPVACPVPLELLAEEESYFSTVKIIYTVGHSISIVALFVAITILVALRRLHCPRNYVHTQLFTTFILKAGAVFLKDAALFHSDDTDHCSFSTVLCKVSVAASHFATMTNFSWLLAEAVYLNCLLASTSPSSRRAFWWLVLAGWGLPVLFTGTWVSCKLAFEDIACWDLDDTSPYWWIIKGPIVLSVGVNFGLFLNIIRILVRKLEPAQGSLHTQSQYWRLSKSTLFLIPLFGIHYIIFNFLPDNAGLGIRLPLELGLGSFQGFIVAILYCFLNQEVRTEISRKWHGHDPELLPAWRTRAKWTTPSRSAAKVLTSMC

T2: GHRH receptor (membrane receptors of human anterior pituitary cells) (human), Q02643
T2 chain: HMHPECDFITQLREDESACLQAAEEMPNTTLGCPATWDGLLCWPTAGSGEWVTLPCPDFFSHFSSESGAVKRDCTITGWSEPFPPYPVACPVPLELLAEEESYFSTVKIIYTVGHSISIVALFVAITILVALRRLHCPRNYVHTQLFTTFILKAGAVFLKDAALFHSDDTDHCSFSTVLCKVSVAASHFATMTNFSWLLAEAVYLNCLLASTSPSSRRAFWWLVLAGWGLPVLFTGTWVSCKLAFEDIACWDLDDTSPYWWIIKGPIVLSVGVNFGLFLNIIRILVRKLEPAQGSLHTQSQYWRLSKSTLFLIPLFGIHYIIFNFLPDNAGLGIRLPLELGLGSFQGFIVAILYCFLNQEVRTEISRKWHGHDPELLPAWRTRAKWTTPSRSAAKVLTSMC

B1: P-29703 [N-Me-Tyr^1, Gln^8, Orn^12, Abu^15, Orn^21, Nle^27, Gln-Gab^30]hGHRH(1-30)NH2 (peptide)
chain: [NMeY]ADAIFTQSYR[Orn]VL[Abu]QLSAR[Orn]LLQDI[Nle]SRQ[GABA]-NH2
modifications: N-terminus assumed
SMILES: CCCC[C@H](NC(=O)[C@@H](NC(=O)[C@H](CC(=O)O)NC(=O)[C@H](CCC(N)=O)NC(=O)[C@H](CC(C)C)NC(=O)[C@H](CC(C)C)NC(=O)[C@H](CCCN)NC(=O)[C@H](CCCNC(=N)N)NC(=O)[C@H](C)NC(=O)[C@H](CO)NC(=O)[C@H](CC(C)C)NC(=O)[C@H](CCC(N)=O)NC(=O)[C@H](CC)NC(=O)[C@H](CC(C)C)NC(=O)[C@@H](NC(=O)[C@H](CCCN)NC(=O)[C@H](CCCNC(=N)N)NC(=O)[C@H](Cc1ccc(O)cc1)NC(=O)[C@H](CO)NC(=O)[C@H](CCC(N)=O)NC(=O)[C@@H](NC(=O)[C@H](Cc1ccccc1)NC(=O)[C@@H](NC(=O)[C@H](C)NC(=O)[C@H](CC(=O)O)NC(=O)[C@H](C)NC(=O)[C@H](Cc1ccc(O)cc1)NC)[C@@H](C)CC)[C@@H](C)O)C(C)C)[C@@H](C)CC)C(=O)N[C@@H](CO)C(=O)N[C@@H](CCCNC(=N)N)C(=O)N[C@@H](CCC(N)=O)C(=O)NCCCC(N)=O

How the values were obtained:
[1] = target: T1, GHRH receptor (membrane receptors of human anterior pituitary cells) (human); assay: competition with 125I-JV-1-42, human pituitary membranes
[2] = target: T1, GHRH receptor (membrane receptors of human anterior pituitary cells) (human); assay: as above; remark: listed apart in the source
[3] = target: T1, GHRH receptor (membrane receptors of human anterior pituitary cells) (human); assay: competition with 125I-[His1,Nle27]hGHRH(1-32)NH2, human pituitary membranes
[4] = target: T2, GHRH receptor (membrane receptors of …); assay: competition with 125I-JV-1-42, human pituitary membranes

| IC50 [1] [nM] | Relative affinity (Binding potency) vs GHRH (GHRH(1-29) = 1) [1] | Relative affinity (Binding potency) vs JI-38 [1] [JI-38 = 1] | IC50 [2] [nM] | Relative affinity (Binding potency) vs JI-38 [2] [JI-38 = 1] | IC50 [3] [nM] | Relative affinity (Binding potency) compared to JI-38 [3] [JI-38 = 1] | Relative affinity (Binding potency) compared to hGHRH(1-29) (hGHRH(1-29)NH2 = 1) [3] | IC50 [4] [nM] | Relative affinity (Binding potency) vs JI-38 [4] [JI-38 = 1] | Binder |
| --- | --- | --- | --- | --- | --- | --- | --- | --- | --- | --- |
| 0.01 | 406 | 171 | 0.27 | 16.1 | 1.02 | 2.69 | 7.5 |  |  | [NMeY]ADAIFTQSYR[Orn]VL[Abu]QLSAR[Orn]LLQDI[Nle]D[Agmatine] (peptide, from a related filing, not fully specified (C-terminus)) [P-20356 [N-Me-Tyr^1, Gln^8, Orn^12, Abu^15, Orn^21, Nle^27, Asp^28, Agm^29]hGHRH(1-29)NH2] |
|  |  |  |  |  |  |  |  | 1.22 | 3.57 | B1 |
